In patent US20240059766A1 (VOYAGER THERAPEUTICS, published 2024):
Each block holds one binder with its values, some of them ahead of it. Non-standard residues stand in square brackets, D forms with d. No end group written: not given here. pT = C[C@@H](OP(=O)(O)O)[C@H](N)C(=O)O; pS = N[C@@H](COP(=O)(O)O)C(=O)O

Tests used:
[1] = biological target: T1, Enriched paired helical filament (ePHF; sarkosyl insoluble tau) (human, UniProt P10636 2-758, pathological (hyperphosphorylated) tau isolated from brain; sites not stated); assay: direct ELISA, coated antigen
T1 construct: aggregate isolated from AD frontal cortical tissue
T1 sequence (P10636 other isoform, or with tags, fused parts or gaps limits assumed): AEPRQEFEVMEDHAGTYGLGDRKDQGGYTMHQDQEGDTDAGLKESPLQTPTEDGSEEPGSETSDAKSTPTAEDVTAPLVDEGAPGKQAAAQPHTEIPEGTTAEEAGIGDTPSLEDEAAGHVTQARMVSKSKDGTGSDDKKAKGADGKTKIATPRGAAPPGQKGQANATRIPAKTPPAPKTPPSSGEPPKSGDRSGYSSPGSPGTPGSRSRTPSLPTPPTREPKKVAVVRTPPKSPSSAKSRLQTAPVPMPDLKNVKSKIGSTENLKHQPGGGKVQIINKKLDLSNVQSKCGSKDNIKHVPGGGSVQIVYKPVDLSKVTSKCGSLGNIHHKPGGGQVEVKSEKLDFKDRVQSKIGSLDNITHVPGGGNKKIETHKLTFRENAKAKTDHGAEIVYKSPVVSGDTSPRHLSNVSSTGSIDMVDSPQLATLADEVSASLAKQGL
Protocol: (§1) A set of recombinant human IgG1 antibodies were prepared with clone-specific variable domain pairs selected from those presented in Table 1 and human IgG1 constant domains. These candidate antibodies were analyzed for binding to ePHF and specificity for ePHF over wild type tau by direct ELISA.
(§2) For direct ePHF and wildtype tau ELISA, plates were first coated with ePHF or wild type tau. Antigen solutions were prepared in PBS and 50 μL were pipetted into each well. Plates were covered and incubated for one hour at 37° C. or overnight at 4° C. Plates were then washed and blocked by addition of 150 μl of blocking buffer to each well and incubated one hour at room temperature. Plates were then washed before addition of serially diluted candidate antibody samples prepared in blocking buffer. Detection of candidate antibody binding was carried out by washing plates and adding a solution of enzyme-labeled secondary antibody in blocking buffer to each well. Secondary antibody binding was detected by addition of substrate and spectrophotometric analysis of resulting reaction product.

[2] = biological target: iPHF (UniProt P10636-8 2-441); assay: BLI (Octet), antibody on biosensor tip
Chain of iPHF (P10636 other isoform, or with tags, fused parts or gaps): as the sequence (P10636 other isoform, or with tags, fused parts or gaps limits assumed) above
Protocol: Anti-human tau antibodies were assessed for affinity for iPHF by Octet (ForteBio, Menlo Park, CA) analysis. A set of recombinant human IgG1 antibodies were prepared with clone-specific variable domain pairs selected from those presented in Table 1 and human IgG1 constant domains. Candidate antibodies were immobilized on biosensor tips (ForteBio) in kinetic buffer (ForteBio). Biosensor tips were then washed before introduction of a solution of iPHF in kinetic buffer for analysis of association and dissociation with candidate antibodies.

[3] = biological target: T2, Tau204-222 phospho-peptide (pT212) (human, also: SCBiot-(dPEG4) in the ELISA); assay: one point ELISA
T2 peptide: GTPGSRSR[pT]PSLPTPPTRE
Source text: (§3) One-point ELISA was used to determine differential binding based on the individual phosphorylation patterns of each peptide. OD values (450 nm) were collected (as shown in Table 13), where a stronger positive signal is shown as a higher OD value, which is indicative of increased binding.

[4] = biological target: T3, wtTau C2 (human); assay: one point ELISA
T3 peptide: PTREPKKVA
Source text: as §3

[5] = biological target: T4, AC04 peptide (human, pT212, pT217: CSR(pT)PSLP(pT)PPTREPK); assay: one point ELISA
T4 peptide: CSRXPSLPXPPTREPK
Source text: as §3

[6] = biological target: T5, Tau204-222 phospho-peptide (pS214) (human, also: SCBiot-(dPEG4) in the ELISA); assay: one point ELISA
T5 peptide: GTPGSRSRTP[pS]LPTPPTRE
Source text: as §3

[7] = biological target: T6, Tau204-222 phospho-peptide (pT212/pS214) (human, also: SCBiot-(dPEG4) in the ELISA); assay: one point ELISA
T6 peptide: GTPGSRSR[pT]P[pS]LPTPPTRE
Source text: as §3

[8] = biological target: T7, Tau191-214 phospho-peptide (pS199) (human, pS199 (phosphoserine); SCBio-4PEG in the ELISA); assay: BLI
T7 construct: also called pS199 peptide

[9] = biological target: T8, AT270 peptide (pT181; Tau172-186) (human); assay: one point ELISA
T8 peptide: PAKTPPAPK[pT]PPSSG

[10] = biological target: T9, AT8 peptide (amino acids 195-215 of tau) (human, phospho-peptide; the phosphorylated sites are not stated; immobilized on streptavidin biosensor tips); assay: BLI (Octet), peptide on streptavidin tip
T9 peptide: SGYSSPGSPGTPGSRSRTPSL
Protocol: Briefly, phospho-peptides were immobilized on streptavidin biosensor tips and the binding ability of each antibody was assessed using an eight-point concentration gradient.

[11] = biological target: wild type tau (human, UniProt P10636 2-758); assay: direct ELISA, coated antigen
Chain of wild type tau (P10636 other isoform, or with tags, fused parts or gaps limits assumed): as the sequence (P10636 other isoform, or with tags, fused parts or gaps limits assumed) above
Protocol: as §1, §2

[12] = biological target: T10, Tau phospho-peptide (pS235) (human); assay: one point ELISA on the pS235 peptide
T10 construct: also called pS235 phospho-peptide
T10 peptide: KVAVVRTPPK[pS]PSSAKPS

[13] = biological target: T7, Tau191-214 phospho-peptide (pS199); assay: one point ELISA
Source text: as §3

[14] = biological target: T11, SCBio-4PEG-Peptide (Tau191-214) pS199-old (human, pS199; SCBio-4PEG at the peptide as in the table head); assay: one point ELISA
T11 construct: the suffix old is not explained
T11 sequence (peptide, as listed by the source): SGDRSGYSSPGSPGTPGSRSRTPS
Source text: as §3

EC50 [1]: 0.07 nM
Kd [2]: 3.7 nM
OD450 [3]: 0.082 OD450 nm
OD450 [4]: 0.169 OD450 nm
OD450 [5]: 2.85 OD450 nm
OD450 [6]: 0.069 OD450 nm
OD450 [7]: 0.067 OD450 nm
B1: VY004 (antibody, V domains shown)
VH: EVQLVESGGGLVQAGGSLRLSCAASGFTFSDYSMNWVRQAPGKGLEWVSYIRSSSSIIYYADSVKGRFTISRDNAKNSLHLQMNSLRDEDTAVYYCARRGHFDYWGQGTLVTVSS
VL: EIVLTQSPATLSLSPGERATLSCRASQSVSDYLAWYQQKPGQAPRLFIYDVSKRATGIPARFSGSGSGTDFTLTISSLEPEDFAVYYCQQRSNWPLTFGGGTKVEIK

Kd [2]: 3.7 nM
B2: VY017 (antibody, V domains shown)
VH: EVQLVESGGGLVQPGGSLRLSCAASGFTFSSYSMNWVRQAPGKGLEWVSYIRSSSSTIYYADSVKGRFTISRDNAKKSLYLQMNSLRDEDTAVYYCARRSIADYWGQGTLVTVSS
VL: EIVLTQSPATLSSSPGERATLSCRASQSVTSYLNWYQQKPGQAPRLLIYDASNRATGIPARFSGSGSGTDFTLTISSLEPEDFALYYCQQRSNWPYTFGQGTKLEIK

binding result [8]: no binding
binding result [9]: no binding
binding result [10]: no binding
Kd [2]: 2.6 nM
B3: VY020 (antibody, V domains shown)
VH: EVQLVESGGGLVQPGGSLRLSCAASGFTFSSYSMNWVRQAPGKGLEWISYISSSNSTIKYADSVKGRFTISRDNAKNSLYLQMNSLRDEDTAVYYCARRSLGDYWGQGTLVIVSS
VL: EIVLTQSPATLSLSPGERATLSCRASQSVSSYLAWYLQKPGQAPRLLIYDVSNRATGIPARFSGSGSGTDFTLTISRLEPEDFAVYYCQQRRNWPYTFGQGTKLEIK

EC50 [11]: 0.98 nM
EC50 [1]: 0.06 nM
Kd [2]: 2.9 nM
B4: VY013 (antibody, V domains shown)
VH: QVTLKESGPVLVKPTETLTLTCTVSGFSLINARMAVSWIRQPPGKALEWLAHIFSNDEKSYSTSLKSRLTISKDTSKSQVVLIMTNMDPVDTATYYCARIRGYSYNYGMDVWGQGTTVTVSS
VL: DIVMTQSPLSLPVIPGEPASISCRSSQSLLHSNGYIYLDWYLQKPGQSPQLLIYVGSNRASGVPDRFSGSGSGTDFKLKISRVEAEDVGVYYCMQTLQIPRTFGGGTKVEIK

EC50 [11]: 0.04 nM
EC50 [1]: 6.23 nM
Kd [2]: 5.3 nM
B5: VY014 (antibody, V domains shown)
VH: EVQLVESGGGLVQPGGSLRLSCAASGFTFNNYDMHWVRQAAGKGLEWVSTIGAAGDTYYPGSVKGRFIISRENAKNSLYLQMNSLRAGDTAVYYCARAGETLEGATIGYYYGMDVWGQGTTVTVSS
VL: DILMTQSPLSLPVTPGEPASISCRSSQSLLHSNGYNYLDWYLQKPGQSPQLLIYLGSNRASGVPDRFSGSGSGTDFTLKFSRVEAEDVGLYYCMQALQIPLTFGGGTKVEIK

Kd [2]: 3 nM
B6: VY018 (antibody, V domains shown)
VH: QVQLQESGPGLVKPSETLSLTCTVSGGSISNYYWSWIRQPAGKGLEWIGRIYTSGDTYYNPSLQSRVTMSVDTSKNQFSLKLSAVTAADTAVYYCARAGIVGTPGLGMDVWGQGTTVTVSS
VL: SYELTQPPSVSVSPGQTARITCSGEALPKQYAYWYQQKPGQAPVLVIYKDSERPSGIPERFSGSSSGTTVTLTISGVQAEDEADYYCQSADSSGTYRVFGGGTKLTVL
binding result [12]: no binding (tested: not printed (one point))

binding result [8]: no binding
EC50 [1]: 0.18 nM
Kd [10]: 0.0182 nM
Kd [2]: 0.6 nM
OD450 [13]: 0.057 OD450 nm
OD450 [14]: 0.057 OD450 nm
B7: VY007 (antibody, V domains shown)
VH: EVQLVESGGGLVQPGGSLRLSCAASRFTFSNYNMNWVRQAPGKGLEWISYISSSSSTIYYADSVKGRFTISRDNAKNSLSLQMNSLRDEDTAVYYCASLGRGYWGQGTLVTVSS
VL: not shown

binding result [8]: no binding
EC50 [1]: 0.02 nM
Kd [10]: 0.00435 nM
Kd [2]: 7.7 nM
OD450 [13]: 0.059 OD450 nm
OD450 [14]: 0.059 OD450 nm
B8: VY001 (antibody, V domains shown)
VH: EVQLVESGGGLVQPGGSLRLSCAASGFTFSSYNMNWVRQAPGKGLEWISYISSSSNTIYYADSVKGRFTVSRDNAKNSLYLQMNSLRDEDTAVYYCATLGRGYWGQGTLVIASS
VL: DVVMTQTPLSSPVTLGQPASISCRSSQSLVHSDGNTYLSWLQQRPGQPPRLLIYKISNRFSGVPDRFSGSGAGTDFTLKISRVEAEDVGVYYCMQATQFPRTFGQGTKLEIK

EC50 [1]: 0.07 nM
Kd [2]: 1 nM
OD450 [3]: 0.087 OD450 nm
OD450 [4]: 0.153 OD450 nm
OD450 [5]: 2.83 OD450 nm
OD450 [6]: 0.092 OD450 nm
OD450 [7]: 0.111 OD450 nm
B9: VY005 (antibody, V domains shown)
VH: EVQLVESGGGLVQPGGSLRLSCAASGFTFSSYSMNWVRQAPGKGLEWISYISSSNSTIKYADSVKGRFTISRDNAKNSLYLQMNSLRDEDTAVYYCARRSLGDYWGQGTLVIVSS
VL: DIQLTQSPSFLSASVGDRVTITCRASQGISCSLAWYQQKPGKAPKLLIYAASTLQSGVPSRFSGSGSGTEFTLTISSLQPEDFATYYCQQFNSYPFTFGPGTKVDIK

binding result [8]: no binding
EC50 [1]: 0.11 nM
Kd [10]: 0.00382 nM
Kd [2]: 1.5 nM
OD450 [13]: 0.054 OD450 nm
OD450 [14]: 0.063 OD450 nm
B10: VY006 (antibody, V domains shown)
VH: EVQLVESGGGLVQPGGSLRLSCAASGFTFSSYTMNWVRQAPGKGLEWVSYISSSSSTIYYADSVKGRFTISRDNAKNSLYLQMNSLRDEDTAVYYCASLGRGDCWGQGTLVTVSS
VL: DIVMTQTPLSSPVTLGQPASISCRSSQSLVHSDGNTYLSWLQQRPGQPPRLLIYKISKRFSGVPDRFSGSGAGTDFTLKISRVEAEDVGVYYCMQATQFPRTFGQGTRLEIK

binding result [11]: no binding
binding result [1]: no binding
B11: VY016 (antibody, V domains shown)
VH: EVQLVESGGGLVQPGGSLRLSCAASGFTFSSYSMNWVRQAPGKGLEWVSYISRSGSTIYYADSVEGRFTISRDNAYNSLYLQMISLRDDDTAVYYCARGNWAYWGQGILVTVSS
VL: QSVLTQPPSVSGAPGQRVTISCTGSSSNIGAGYDVHWYQQLPGTAPKLLIYGNSNRPSGVPDRFSGSKSGTSASLAITGLQAEDETDFYCQSYDSSLSGSVFGGGTKLTVL

EC50 [1]: 1.74 nM
Kd [2]: 1.1 nM
B12: VY009 (antibody, V domains shown)
VH: QITLKESGPTLVKPTQTLTLTCTLSGFSLSTSEVGVGWIRQPPGKALEWLAIIYWNDHKRYSPSLKNRLTFTKDTSKNQVVLTMTNMDPVDTATYYCARRVTGEGFDPWGQGTLVTVSS
VL: SYELTQPPSVSVSPGQTARITCSGDALPKQYAYWYQQKPGQAPVLVIFKDTERPSGIPERFSGSSSGTTVTLTISGVQAEDEADYYCQSADSSGSYVFGTGTKVTVL
binding result [12]: no binding (tested: not printed (one point))

binding result [11]: no binding
binding result [1]: no binding
B13: VY019 (antibody, V domains shown)
VH: QVQLQESGPGLVKPSETLSLTCTVSGGSISSYYWTWIRQPAGKGLEWIGRIDTSGSTNYNPSLKSRVTMSIDTSKKQFSLKLSSVTAADTAVYYCARGGDGYRYWGQGTLVTVSS
VL: SYELTQPPSVSVSPGQTARITCSGDALPKQYACWYQQKPGQAPVLVIYKDSERPSGIPERFSGSSSGTTVTLTITGVQAEDEADYYCQSTDSSGSWVFGGGTKLTVL
binding result [12]: no binding (tested: not printed (one point))

EC50 [11]: 0.01 nM
EC50 [1]: 0.04 nM
Kd [2]: 5.1 nM
B14: VY012 (antibody, V domains shown)
VH: EVQLLESGGGLVQPGGSLRLSCAASGFTYSSYAMSWVRRAPGKGLEWISIISGSSSITYYADSMKGRFTISRDNSKNTLFLQMNSLRAEDTAVYYCAKGGRYGYFQHWGQGTLVTVSS
VL: SYVLTQPPSVSVAPGQTARITCGGNNIGSKSVHWYQQKPGQAPVLVVYDDSDRPSGIPERFSGSNSGNTATLTISRVEAGDEADYYCQVWDSSSDPVVFGGGTMLTVL
